# Measurements published in US7572444B2, “Binding proteins specific for human matriptase” (Amgen Fremont Inc., priority 2004, dated 2009).
# T1: Biotinylated-MTSP1 (Homo sapiens, UniProt Q9Y5Y6)
# T1 sequence (Q9Y5Y6 615-855 limits assumed): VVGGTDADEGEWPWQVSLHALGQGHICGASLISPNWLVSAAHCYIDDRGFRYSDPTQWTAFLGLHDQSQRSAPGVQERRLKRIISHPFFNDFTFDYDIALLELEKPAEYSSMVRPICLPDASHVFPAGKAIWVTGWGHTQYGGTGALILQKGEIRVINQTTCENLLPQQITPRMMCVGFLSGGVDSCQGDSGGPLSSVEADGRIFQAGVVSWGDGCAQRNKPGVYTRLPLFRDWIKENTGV
# B1: HAI-1: the natural inhibitor of MT-SP1 (protein, UniProt O43278 36-529, looked up)
# Kunitz-type protease …: GPPPAPPGLPAGADCLNSFTAGVPGFVLDTNASVSNGATFLESPTVRRGWDCVRACCTTQNCNLALVELQPDRGEDAIAACFLINCLYEQNFVCKFAPREGFINYLTREVYRSYRQLRTQGFGGSGIPKAWAGIDLKVQPQEPLVLKDVENTDWRLLRGDTDVRVERKDPNQVELWGLKEGTYLFQLTVTSSDHPEDTANVTVTVLSTKQTEDYCLASNKVGRCRGSFPRWYYDPTEQICKSFVYGGCLGNKNNYLREEECILACRGVQGGPLRGSSGAQATFPQGPSMERRHPVCSGTCQPTQFRCSNGCCIDSFLECDDTPNCPDASDEAACEKYTSGFDELQRIHFPSDKGHCVDLPDTGLCKESIPRWYYNPFSEHCARFTYGGCYGNKNNFEEEQQCLESCRGISKKDVFGLRREIPIPSTGSVEMAVAVFLVICIVVVVAILGYCFFKNQRKDFHGHHHHPPPTPASSTVSTTEDTEHLVYNHTTRPL
# Molecular target: T1, Biotinylated-MTSP1
# Experiment: Competition binding assay on sc95/96 coated plate
# Details: 125 ng/ml Biotinylated-MTSP1; HAI-1 titrated from 2 μg/ml, sc95/96 from 10 μg/ml
# From the text: This experiment was set-up to determine whether or not HAI-1 (the natural inhibitor of MT-SP1) would compete for binding to MT-SP1 with 95/96.
# Bound MTSP was then detected with SA-pod.
molecule,measurement,value
B1,competition for binding of MT-SP1 to sc95/96 coated plate,prevented the binding of MT-SP1 to the plate
